Source: patent US20250276077A1 (IMMUNOME, published 2025)

Experiments:
[1] = biological target: T1, Human EphA2 (ephrin receptor A2) on cells (human, UniProt P29317 25-976); test: cell-based or functional assay
[2] = biological target: T1, Human EphA2 (ephrin receptor A2) on …; test: cell-based or functional assay; remark: listed apart in the source
[3] = biological target: T1, Human EphA2 (ephrin receptor A2) on …; test: cell-based or functional assay; remark: listed apart in the source
[4] = biological target: T1, Human EphA2 (ephrin receptor A2) on …; test: cell-based or functional assay; remark: listed apart in the source
hEphA2-clv435-534-Fc = biological target: T2, hEphA2-clv435-534-Fc (human, UniProt P29317 435-534); test: SPR Biacore, 25 C; hEphA2-Fc fusion captured by anti-human Fc, Fab analyte
T2 construct: Recombinant fragment representing a cleavage form; not shown: human Fc, C-terminal to the EphA2 part
Procedure: (§1) The hEphA2-Fc fusions were captured with an anti-human Fe immobilized to a CM5 chip.
(§2) Biacore® assays were conducted at 25° C. using HBS-EP+ buffer (0.01 M HEPES pH 7.4, 0.15 M NaCl, 3 mM EDTA, 0.005% v/v Surfactant P20). Data was double-reference subtracted and data was analyzed using 1:1 Langmuir binding model and steady-state model in Biacore Evaluation software.
(§3) Binding to hEphA2-ECD-Fc tested using 100, 300, and 900 nM analyte.

[5] = biological target: T3, hEphA2-FN12-(327-534) - Fc (human, UniProt P29317 327-534); test: as above
T3 construct: also called FN1-FN2 domains Fc fusion; not shown: human Fc, C-terminal to the EphA2 part
Procedure: as §1, §2, §3

[6] = biological target: T4, hEphA2-FN2-(437-534) - Fc (human, UniProt P29317 437-534); test: as above
T4 construct: also called FN2 domain Fc fusion; not shown: human Fc, C-terminal to the EphA2 part
Procedure: as §1, §2, §3

hEphA2-clv385-534-Fc = biological target: T5, hEphA2-clv385-534-Fc (human, UniProt P29317 385-534); test: as above
T5 construct: Recombinant fragment representing a cleavage form; not shown: human Fc, C-terminal to the EphA2 part
Procedure: as §1, §2, §3

hEphA2-clv432-534-Fc = biological target: T6, hEphA2-clv432-534-Fc (human, UniProt P29317 432-534); test: as above
T6 construct: Recombinant fragment representing a cleavage form; not shown: human Fc, C-terminal to the EphA2 part
Procedure: as §1, §2, §3

hEphA2-clv395-534-Fc = biological target: T7, hEphA2-clv395-534-Fc (human, UniProt P29317 395-534); test: as above
T7 construct: Recombinant fragment representing a cleavage form; not shown: human Fc, C-terminal to the EphA2 part
Procedure: as §1, §2, §3

[7] = biological target: T8, C-terminally His-tagged hEphA2-FN2 (Thr437-Asn534+His tag) (human, UniProt P29317 437-534); test: SPR Biacore T200, 25 C; mIgG2a as immobilized ligand, hEphA2-FN2-His analyte
T8 construct: also called FN2 domain of hEphA2
Procedure: Binding of EphA2 antibodies to the FN2 domain of hEphA2 was measured using the Biacore® T200 SPR system. Biacore® assays were conducted at 25° C. using HBS-EP+ buffer (0.01 M HEPES pH 7.4, 0.15 M NaCl, 3 mM EDTA, 0.005% v/v Surfactant P20) using the FN2 domain as the analyte with the antibodies in mIgG2a format as the immobilized ligand. Data was analyzed using 1:1 Langmuir binding model and steady-state model in Biacore Evaluation software.
C-terminally His-tagged human EphA2 FN2 domain (Thr437-Asn534+His tag) was used as the analyte. The analyte was associated for 120 seconds and dissociated for 100 seconds or 300 seconds at 30 μL/min.

[8] = biological target: T8, C-terminally His-tagged hEphA2-FN2 …; test: SPR Biacore T200, 25 C; mIgG2a captured by anti-mouse Fc, hEphA2-FN2-His analyte; steady-state monovalent KD
Procedure: Binding of antibodies to the FN2 domain of hEphA2 was measured using the Biacore® T200 SPR system at 25° C. using HBS-EP+ buffer (0.01 M HEPES pH 7.4, 0.15 M NaCl, 3 mM EDTA, 0.005% v/v Surfactant P20). Antibodies in mIgG2a format were captured at levels between 475-715 RU via an anti-mouse Fc antibody immobilized to a CM5 chip. Binding was assessed using a titration of C-terminally His-tagged hEphA2-FN2 (Thr437-Asn534+His tag) associated for 30 s or 75 s at 30 μL/min. Data was double-reference subtracted using both a surface without captured antibody and from injections of HBS-EP+ buffer. The equilibrium response was measured at 4 seconds before the end of association with a window of 5 seconds and fit using the Biacore T200 Evaluation Software 3.1 with the Steady State Affinity Model.

[9] = biological target: T1, Human EphA2 (ephrin receptor A2) on …; test: cell-based or functional assay; remark: listed apart in the source
[10] = biological target: T1, Human EphA2 (ephrin receptor A2) on …; test: flow cytometry on A549 cells
Procedure: Surface binding of the antibodies to in vitro grown cell lines was assessed by flow cytometry. Tumor cells were detached from their culture plate using Versene and counted. Cells were staining in BSA-containing buffer with primary antibody for 30 minutes at 4° C. with shaking. Following, cells were washed and stained with secondary PE-labeled antibody for 30 minutes at 4° C. with shaking. Before analysis on an Intellicyt iQue3 scanner, cells were counterstained with DAPI. MedFI values from live, single cells was expressed as fold over isotype control.

[11] = biological target: T1, Human EphA2 (ephrin receptor A2) on …; test: cell-based or functional assay; remark: listed apart in the source
[12] = biological target: human 4-1BB on reporter cells (human, UniProt Q07011 24-255); test: cell-based or functional assay
Sequence of human 4-1BB on reporter cells (Q07011 24-255): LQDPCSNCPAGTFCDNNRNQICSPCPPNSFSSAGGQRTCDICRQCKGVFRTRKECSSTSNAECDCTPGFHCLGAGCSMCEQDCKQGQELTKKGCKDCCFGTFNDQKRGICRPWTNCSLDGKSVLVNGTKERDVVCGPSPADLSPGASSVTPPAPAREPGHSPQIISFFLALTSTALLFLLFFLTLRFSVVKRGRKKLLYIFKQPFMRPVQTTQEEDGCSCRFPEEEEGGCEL

T2 sequence (P29317 435-534): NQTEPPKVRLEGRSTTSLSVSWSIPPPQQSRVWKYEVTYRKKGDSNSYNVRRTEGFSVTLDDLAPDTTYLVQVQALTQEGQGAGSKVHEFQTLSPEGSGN
T6 sequence (P29317 432-534): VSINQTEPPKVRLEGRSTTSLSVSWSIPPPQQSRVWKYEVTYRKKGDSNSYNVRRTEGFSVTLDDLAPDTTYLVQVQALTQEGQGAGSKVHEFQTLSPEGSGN
T8 sequence (P29317 437-534 limits assumed): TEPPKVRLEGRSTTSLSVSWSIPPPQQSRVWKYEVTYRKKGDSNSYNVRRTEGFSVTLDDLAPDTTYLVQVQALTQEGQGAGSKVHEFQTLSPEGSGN
T4 sequence (P29317 437-534): as the sequence (P29317 437-534 limits assumed) above
T7 sequence (P29317 395-534): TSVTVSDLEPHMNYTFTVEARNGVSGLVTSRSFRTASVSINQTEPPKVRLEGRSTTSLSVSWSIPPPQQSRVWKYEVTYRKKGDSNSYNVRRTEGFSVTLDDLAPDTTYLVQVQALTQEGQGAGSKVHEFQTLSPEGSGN
T1 sequence (P29317 25-976): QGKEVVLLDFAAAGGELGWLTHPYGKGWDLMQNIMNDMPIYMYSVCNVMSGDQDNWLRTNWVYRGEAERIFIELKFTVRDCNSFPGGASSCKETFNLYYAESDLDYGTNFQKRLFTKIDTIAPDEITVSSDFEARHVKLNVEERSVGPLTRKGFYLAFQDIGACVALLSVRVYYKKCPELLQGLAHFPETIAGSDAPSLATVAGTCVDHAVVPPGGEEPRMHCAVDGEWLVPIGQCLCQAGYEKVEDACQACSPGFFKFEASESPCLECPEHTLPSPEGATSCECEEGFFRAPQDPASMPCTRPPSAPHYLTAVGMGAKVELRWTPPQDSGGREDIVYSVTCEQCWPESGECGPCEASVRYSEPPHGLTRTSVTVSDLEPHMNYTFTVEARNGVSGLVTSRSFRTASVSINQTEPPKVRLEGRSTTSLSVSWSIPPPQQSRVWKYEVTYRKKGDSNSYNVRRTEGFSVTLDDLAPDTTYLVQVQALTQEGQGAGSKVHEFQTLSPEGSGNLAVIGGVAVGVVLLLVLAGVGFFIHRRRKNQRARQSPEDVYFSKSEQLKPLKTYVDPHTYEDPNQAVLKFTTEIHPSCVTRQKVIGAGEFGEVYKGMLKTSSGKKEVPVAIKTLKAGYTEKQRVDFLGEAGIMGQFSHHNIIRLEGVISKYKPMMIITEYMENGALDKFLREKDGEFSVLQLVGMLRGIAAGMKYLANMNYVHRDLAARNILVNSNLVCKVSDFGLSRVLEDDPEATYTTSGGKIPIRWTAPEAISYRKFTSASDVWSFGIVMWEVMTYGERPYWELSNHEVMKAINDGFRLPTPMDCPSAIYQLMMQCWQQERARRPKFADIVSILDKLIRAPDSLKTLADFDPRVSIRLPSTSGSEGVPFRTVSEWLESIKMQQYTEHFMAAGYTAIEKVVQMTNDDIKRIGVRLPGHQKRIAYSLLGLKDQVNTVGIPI
T3 sequence (P29317 327-534): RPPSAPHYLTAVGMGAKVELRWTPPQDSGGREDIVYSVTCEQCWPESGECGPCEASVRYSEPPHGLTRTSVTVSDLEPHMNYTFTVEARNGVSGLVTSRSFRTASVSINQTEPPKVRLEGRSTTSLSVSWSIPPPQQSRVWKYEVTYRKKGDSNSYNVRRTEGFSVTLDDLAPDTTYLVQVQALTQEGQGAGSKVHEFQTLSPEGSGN
T5 sequence (P29317 385-534): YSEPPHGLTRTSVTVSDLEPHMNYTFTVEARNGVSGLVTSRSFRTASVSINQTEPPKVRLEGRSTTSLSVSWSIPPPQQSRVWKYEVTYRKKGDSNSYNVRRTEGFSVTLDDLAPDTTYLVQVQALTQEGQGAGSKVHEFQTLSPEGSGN

B1: AB-010699 (antibody, V domains shown)
VH: QVQLQQWGAGLLKPSETLSLTCAVYGGSFSGYYWSWIRQPPGKGLEWIGEINHRGSINYNNYNPSLKSRVTISVDTSKNQFSLKLSSVTAADTAVYYCAKPLRPHCINGVCYSGDAFDIWGQGTMVTVAS
VL: SYVLTQPPSVSVAPGQTARITCGGNNIGYKNVHWYQQKPGQAPVLVVYDDSDRPSGIPERFSGSNSGNTATLTISRVEAGDEADYYCQVWDHSSDHVVFGGGTKLTVL
For B1, the “EC50 (read off the curve), EphA2 pY588 phosphorylation, soluble agonist titration” value [1] was ~3e-09 M, the “ADCC - EC50 (nM), Trial 1, A549” value [2] was ~0.014 nM and the “ADCC - EC50 (nM), Trial 2, A549” value [2] was 0.0058 nM.

B2: AB-010361 (antibody, mouse IgG2a, V domains shown)
VH: QVQLQQWGAGLLKPSETLSLTCAVYGGSFSGYYWSWIRQPPGKGLEWIGEINHRGSINYNNYNPSLKSRVTISVDTSKNQFSLKLSSVTAADTAVYYCAKPLRPHCTNGVCYSGDAFDIWGQGTMVTVAS
VL: SYVLTQPPSVSVAPGQTARITCGGNNIGSKNVHWYQQKPGQAPVLVVYDDSDRPSGIPEQFSGSNSGNTATLTISRVEAGDEADYYCQVWDSSSDHVVFGGGTKLTVL
B2 was tested, and the “ADCC - EC50 (nM), Trial 1, A549” value [2] was 4 nM, the “ADCC - EC50 (nM), Trial 2, A549” value [2] was 2.2 nM and the “ADCC EC50 (nM), parent, A549” value [3] was 3.1 nM. The “ADCC EC50” value [4] was 3.1 nM and the “ADCC Fold-improved (against AB-008873)” value [4] was 11.2 fold.

B3: AB-010699 human Fab fragment (Fab, V domains shown)
VH: QVQLQQWGAGLLKPSETLSLTCAVYGGSFSGYYWSWIRQPPGKGLEWIGEINHRGSINYNNYNPSLKSRVTISVDTSKNQFSLKLSSVTAADTAVYYCAKPLRPHCINGVCYSGDAFDIWGQGTMVTVAS
VL: SYVLTQPPSVSVAPGQTARITCGGNNIGYKNVHWYQQKPGQAPVLVVYDDSDRPSGIPERFSGSNSGNTATLTISRVEAGDEADYYCQVWDHSSDHVVFGGGTKLTVL
notes: Human Fab format
In the case of B3, the Kd (hEphA2-clv435-534-Fc) is reported as 9.3 nM, the koff (hEphA2-clv435-534-Fc) is reported as 0.078 s⁻¹ and the kon (hEphA2-clv435-534-Fc) is reported as 8.42e+06 M⁻¹ s⁻¹. For the same binder, the Kd [5] was 8.6 nM, the koff [5] was 0.043 s⁻¹ and the kon [5] was 5e+06 M⁻¹ s⁻¹. For the same binder, the Kd [6] was 8.6 nM, the koff [6] was 0.085 s⁻¹ and the kon [6] was 1e+07 M⁻¹ s⁻¹. It also gave a Kd (hEphA2-clv385-534-Fc) of 12 nM, a koff (hEphA2-clv385-534-Fc) of 0.072 s⁻¹ and a kon (hEphA2-clv385-534-Fc) of 6.05e+06 M⁻¹ s⁻¹. The Kd (hEphA2-clv432-534-Fc) was 9.6 nM, the koff (hEphA2-clv432-534-Fc) was 0.075 s⁻¹ and the kon (hEphA2-clv432-534-Fc) was 7.78e+06 M⁻¹ s⁻¹. It also gave a Kd (hEphA2-clv395-534-Fc) of 12 nM, a koff (hEphA2-clv395-534-Fc) of 0.07 s⁻¹ and a kon (hEphA2-clv395-534-Fc) of 5.72e+06 M⁻¹ s⁻¹.

B4: AB-010357 (antibody, mouse IgG2a, V domains shown)
VH: QVQLQQWGAGLLKPSETLSLTCAVYGGSFSDYYWSWIRQPPGKGLEWIGEINHRGSINYNNYNPSLKSRVTISVDTSKNQFSLKLSSVTAADTAVYYCAKPLRPHCTNGVCYSGDAFDIWGQGTMVTVAS
VL: SYVLTQPPSVSVAPGQTARITCGGNNIGSKNVHWYQQKPGQAPVLVVYDDSDRPSGIPEQFSGSNSGNTATLTISRVEAGDEADYYCQVWDSSSDHVVFGGGTKLTVL
With B4 the “ADCC - EC50 (nM), Trial 1, A549” value [2] was 12.3 nM, the “ADCC - EC50 (nM), Trial 2, A549” value [2] was 9.6 nM and the “ADCC EC50 (nM), parent, A549” value [3] was 10.9 nM. For the same binder, the “ADCC EC50” value [4] was 11.6 nM and the “ADCC Fold-improved (against AB-008873)” value [4] was 3 fold.

B5: AB-010363 (antibody, V domains shown)
VH: QVQLQQWGAGLLKPSETLSLTCAVYGGSFSGYYWSWIRQPPGKGLEWIGEINHRGSINYNNYNPSLKSRVTISVDTSKNQFSLKLSSVTAADTAVYYCAKPLRPHCTNGVCYSGDAFDIWGQGTMVTVAS
VL: SYVLTQPPSVSVAPGQTARITCGGNNIGSKNVHWYQQKPGQAPVLVVYDDSDRPSGIPERFSGSNSGNTATLTISRVEAGDEADYYCQVWDSSSDHVVFGGGTKLTVL
In the case of B5, the “ADCC - EC50 (nM), Trial 1, A549” value [2] is reported as 5.1 nM, the “ADCC - EC50 (nM), Trial 2, A549” value [2] is reported as 4.2 nM and the “ADCC EC50 (nM), parent, A549” value [3] is reported as 4.65 nM. The “ADCC EC50” value [4] was 9.5 nM and the “ADCC Fold-improved (against AB-008873)” value [4] was 3.66 fold.

B6: AB-010699 (mouse IgG2a format) (antibody, V domains shown)
VH: QVQLQQWGAGLLKPSETLSLTCAVYGGSFSGYYWSWIRQPPGKGLEWIGEINHRGSINYNNYNPSLKSRVTISVDTSKNQFSLKLSSVTAADTAVYYCAKPLRPHCINGVCYSGDAFDIWGQGTMVTVAS
VL: SYVLTQPPSVSVAPGQTARITCGGNNIGYKNVHWYQQKPGQAPVLVVYDDSDRPSGIPERFSGSNSGNTATLTISRVEAGDEADYYCQVWDHSSDHVVFGGGTKLTVL
notes: tested in mIgG2a format
B6 showed a Kd [7] of 19 nM, a koff [7] of 0.075 s⁻¹ and a kon [7] of 3.9e+06 M⁻¹ s⁻¹. It also gave a Kd [8] of 18.9 nM.

B7: AB-009815 (antibody, mouse IgG2a, V domains shown)
VH: QVQLQQWGAGLLKPSETLSLTCAVYGGSFSDYYWSWIRQPPGKGLEWIGEVNHRGSINYNNYNPSLKSRVTISVDTSKNQFSLKLTSVTAADTAVYYCAKPLRPHCTNGVCYSGDAFDIWGQGTMVTVAS
VL: SYVLTQPPSVSVAPGQTARITCGGNNIGSKNVHWYQQKPGQAPVLVVYDDSDRPSGIPEQFSGSNSGNTATLTISRVEAGDEADYYCQVWDSSSDHLVFGGGTKLTVL
In the case of B7, the “ADCC Delta, A549 cells” value [9] is reported as 59.8, the “ADCC EC50 (nM), A549 cells” value [9] is reported as 10.4 nM and the EC50 [10] is reported as 5.5 nM. For the same binder, the “Flow Delta” value [10] was 745000 and the “EC50 (read off the curve), ADC activity” value [11] was ~2 nM.

B8: Urelumab (AB-009811) (antibody, V domains shown)
VH: QVQLQQWGAGLLKPSETLSLTCAVYGGSFSGYYWSWIRQSPEKGLEWIGEINHGGYVTYNPSLESRVTISVDTSKNQFSLKLSSVTAADTAVYYCARDYGPGNYDWYFDLWGRGTLVTVSS
VL: EIVLTQSPATLSLSPGERATLSCRASQSVSSYLAWYQQKPGQAPRLLIYDASNRATGIPARFSGSGSGTDFTLTISSLEPEDFAVYYCQQRSNWPPALTFGGGTKVEIK
For B8, the “EC50 (read off the curve), 4-1BB reporter activation with PC3” value [12] was ~0.3 nM.
